Reference: the supplement of paper PMC12042874
± gives the uncertainty stated by the source.

experiment: amyloid nucleation score (Sup35N fusion, yeast selection) (log enrichment); library NNK3; higher = more nucleation; inactive = no reads after selection
Outline: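 Libraries of peptides of 20 random codons fused to Sup35N were expressed in psi-negative yeast and induced 24 hours with 100 μM copper sulfate. Selection was 7 days at 30°C on medium lacking adenine and uracil, and plasmid inserts were Illumina-sequenced before and after selection. Nucleation score is the DiMSum log enrichment of output over input reads, centred on the mode score of non-aggregating sequences, and sequences with under 100 input reads were left out.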

Substance | amyloid nucleation score
LVSWSIA | inactive
SVVFLLRIAWYWGLWIVLLL | inactive
HWTGVAELLAGYCV | inactive
GLDTAR | inactive
WTMSLLQFDLDTSTSTLTMV | inactive
LLLGDVVVMTEAYYIMSPVP | inactive
GLCKS | inactive
SPKAVSCNTFPIGYRISFFL | inactive
TCYFVYTRFFWGDRESKSTF | inactive
ISTVFLVISSAGTCPSHDKE | 1.32 ± 0.095
SRRYFYIDIRYRNIKP | inactive
ETAGMGTPSVRAHGLASGSV | -0.672 ± 1.8
QFTGHINRDVNM | inactive
KSGPYAVRLSEISWCDVRAG | 0.153 ± 0.88
LYFRLPNASAVDIIEIGFPV | 0.039 ± 0.55
INTGMASGSSGTYVSAGIEA | inactive
ILLSVSWGAR | 1.49 ± 0.13
TGSNRSYIFFCWSRFNVMFG | -0.002 ± 0.9
RHEVYSTANYHVCSCRFFIV | 0.406 ± 0.17
GCCFLVILWMKYDCYLGDQV | inactive
LRFRAQNTYEGPYTVGPVWS | inactive
FRPLFSESHYPASLTGTGHN | inactive
RLRVG | inactive

Substance | amyloid nucleation score
GRTYSGYTGWRGVLGHDLVM | inactive
ISEVLLCAFVVYIMRKR | 0.953 ± 0.11
AAEPEVDNSYTAGDSGTRGT | inactive
TTVDDNFVHRRPM | inactive
MLCAL | inactive
CKLYHIIGLYLGVVVL | inactive
IMSSVVYECFKVLRHSVMSG | inactive
YIITFGSMTCLVVTGNPAIV | -0.039 ± 0.66
VENVDYFCDFGTISIL | 1.66 ± 0.087
ASTMDW | inactive
VCWSHKCRVDVS | inactive
GYNFNEENINMLHQREFSLS | inactive
VSNHSIDIGRLRLGFTC | inactive
DKIGDFNLYWHVKALLAYFY | inactive
TNYFESFY | -0.052 ± 1.2
TLPMLDNTNNFTSPL | -0.034 ± 0.31
LGCSVTTVSV | inactive
ASMLALCVLMHRLEPIRSFN | 0.64 ± 0.2
ILPTAKKSKCGSHL | inactive
VRCVVGITVFGIHERVTSER | 0.169 ± 0.61
MRNCEIISWKKAQVLSYNSS | inactive
QLRRCLEMARYSKARFRNCM | inactive
ICAMAYADRTFSTSKGSK | inactive

Substance | amyloid nucleation score
FQSDRVCFIGGWTSNRVGWM | 0.699 ± 0.28
HVAIPTGLSKSNSQLYS | inactive
RIYQRSFIWCASMESGSGPL | 0.747 ± 0.2
LVNLCRIRRVLECVRRRHRS | inactive
TVSGQLIT | inactive
FISRVMGSSR | inactive
HYLYRNCNVAVTVRSLTV | inactive
SNIVFVPRSLQRREDGRRMD | inactive
VFSGGVRETLNSS | inactive
NLFDGTN | inactive
LADFRGQSLTDEGCMWTSSG | inactive
NSNSI | inactive
GYLYDFLPCP | -0.497 ± 0.7
RRAVVLSVRGWRSAVTSRFS | inactive
QICRGCRYVNVYYVPLSLDL | 1.32 ± 0.095
PKNFLSVETF | inactive
GFFELYS | inactive
SDFEAFSFGDNMVFLIEMEG | inactive
LWVRKDERGEYI | inactive
RMYRGWLVPDAARSKGCRVM | inactive
LVRVGSSNYLVNQIRPNISA | inactive
